According to patent publication US20230075633A1 (SHANDONG BOAN BIOTECHNOLOGY, published 2023):
Where two headings read alike, the source gives them in different places.

T1: human CEA (human, UniProt P06731 35-702)
T1 sequence (looked up): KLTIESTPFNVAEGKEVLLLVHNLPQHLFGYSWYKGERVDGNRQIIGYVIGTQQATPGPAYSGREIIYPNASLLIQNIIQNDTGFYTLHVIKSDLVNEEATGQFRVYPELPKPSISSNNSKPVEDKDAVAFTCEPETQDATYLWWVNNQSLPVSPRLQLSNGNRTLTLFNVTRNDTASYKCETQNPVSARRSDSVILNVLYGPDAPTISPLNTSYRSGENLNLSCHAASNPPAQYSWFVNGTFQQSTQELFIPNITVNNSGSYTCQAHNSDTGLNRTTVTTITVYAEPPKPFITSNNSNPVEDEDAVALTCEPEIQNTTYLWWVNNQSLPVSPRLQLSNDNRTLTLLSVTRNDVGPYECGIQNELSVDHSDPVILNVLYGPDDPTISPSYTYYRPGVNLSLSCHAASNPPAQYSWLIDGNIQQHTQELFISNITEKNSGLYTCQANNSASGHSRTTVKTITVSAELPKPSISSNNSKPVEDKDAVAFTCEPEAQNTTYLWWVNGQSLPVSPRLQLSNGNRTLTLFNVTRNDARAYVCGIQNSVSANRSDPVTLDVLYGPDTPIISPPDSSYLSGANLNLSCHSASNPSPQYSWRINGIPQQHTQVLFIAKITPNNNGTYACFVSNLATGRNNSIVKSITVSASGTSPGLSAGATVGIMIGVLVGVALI

T2: Cynomolgus monkey CD3 protein (cynomolgus monkey, UniProt Q95LI5 22-117)
T2 sequence (looked up): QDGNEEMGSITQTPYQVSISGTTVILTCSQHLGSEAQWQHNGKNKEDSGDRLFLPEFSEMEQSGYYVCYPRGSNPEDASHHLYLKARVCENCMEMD


Assays:
[1] = molecular target: T1, human CEA; assay: cell-based or functional assay
[2] = molecular target: T1, human CEA; assay: cell-based or functional assay; remark: listed apart in the source
[3] = molecular target: T3, human CD3 (human, UniProt P07766 23-207); assay: cell-based or functional assay
T3 sequence (P07766 23-207): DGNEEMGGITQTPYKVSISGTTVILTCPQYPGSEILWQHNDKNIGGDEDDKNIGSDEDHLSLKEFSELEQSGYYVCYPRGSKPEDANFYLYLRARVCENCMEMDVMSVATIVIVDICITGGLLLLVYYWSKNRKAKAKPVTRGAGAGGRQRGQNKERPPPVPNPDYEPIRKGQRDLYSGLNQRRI

[4] = molecular target: T3, human CD3; assay: cell-based or functional assay; remark: listed apart in the source
[5] = molecular target: T2, Cynomolgus monkey CD3 protein; assay: ELISA on cynomolgus monkey CD3 protein, curve fit
[6] = molecular target: T3, human CD3; assay: flow cytometry on human PBMC (ND 12)
Protocol: (§1) Mean fluorescence intensity (MFI) was determined by Flow cytometry. […] Mean fluorescence intensity (MFI) was determined by Flow cytometry.

[7] = molecular target: T1, human CEA; assay: cell-based or functional assay; remark: listed apart in the source
[8] = molecular target: T1, human CEA; assay: cell-based or functional assay; remark: listed apart in the source
[9] = molecular target: T3, human CD3; assay: flow cytometry on Jurkat cells
Protocol: as §1

Binder | lysis of KATO III cells by PBMC: Bottom [1] | lysis of KATO III cells by PBMC: LogEC50 [1] | lysis of KATO III cells by PBMC: Span [1] | lysis of KATO III cells by PBMC: Top [1] | lysis of LS-174T cells by PBMC: Bottom [2] | lysis of LS-174T cells by PBMC: LogEC50 [2] | lysis of LS-174T cells by PBMC: Span [2] | lysis of LS-174T cells by PBMC: Top [2] | NFAT-luciferase in Jurkat cells: Bottom [4] | NFAT-luciferase in Jurkat cells: LogEC50 [4] | NFAT-luciferase in Jurkat cells: Span [4] | NFAT-luciferase in Jurkat cells: Top [4] | Bottom (best-fit) [5] | LogEC50 [5] | Span (best-fit) [5] | Top (best-fit) [5] | also measured
CEA/CD3OPT1a (bispecific antibody, V domains shown, Same format as m1; also called OPTSP34 1a; copies: 2 + 2 + 2 + 2) VH 1: EVQLVESGGGLVQPGGSLRLSCAASGFNIKDTYMHWVRQAPGKGLEWVARIDPAQGNTKYADSVKGRFTISADTSKNTAYLQMNSLRAEDTAVYYCAPFGYYVSDYAMAYWGQGTLVTVSS VL 1: DIQLTQSPSSLSASVGDRVTITCRAGESVDIFGVGFLHWYQQKPGKAPKLLIYRASNLESGVPSRFSGSGSRTDFTLTISSLQPEDFATYYCQQTNEDPYTFGQGTKVEIK VH 2: EVQLVESGGGLVKPGGSLKLSCAASGFTFSTYAMNWVRQAPGKGLEWVARIRSKYNNYATYYADSVKDRFTISRDDSKNTAYLQMNNLRTEDTAVYYCVRHGNFGNSYISYWAYWGQGTTVTVSS VL 2: not shown | 52.5 | -0.944 | 51.7 | 104 | 17.3 | -2.81 | 89.2 | 106 | 1570 | -0.0022 | 130000 | 132000 | 0.0666 | -1.32 | 4.02 | 4.09 | NFAT-luciferase in Jurkat cells: Bottom [3]: 49.9; NFAT-luciferase in Jurkat cells: LogEC50 [3]: -0.801; NFAT-luciferase in Jurkat cells: Span [3]: 1150; NFAT-luciferase in Jurkat cells: Top [3]: 1200
CEA/CD3OPT1a3b2b1 BsAb (bispecific antibody, V domains shown, also called CEA/CD3-1a3b2b1-BsAb; Lead CEA/CD3; copies: 2 + 2 + 2 + 2) VH 1: EVQLVESGGGLVQPGGSLRLSCAASGFNIKDTYMHWVRQAPGKGLEWVARIDPAQGNTKYADSVKGRFTISADTSKNTAYLQMNSLRAEDTAVYYCAPFGYYVSDYAMAYWGQGTLVTVSS VL 1: DIQLTQSPSSLSASVGDRVTITCRAGESVDIFGVGFLHWYQQKPGKAPKLLIYRASNLESGVPSRFSGSGSRTDFTLTISSLQPEDFATYYCQQTNEDPYTFGQGTKVEIK VH 2: EVQLVESGGGLVKPGGSLKLSCAASGFTFSTYAMNWVRQAPGKGLEWVARIRSKYNNYATTYADSVKDRFTISRDDSKNTAYLQMNNLRTEDTAVYYCVRHGNWGNSYISYWAYWGQGTTVTVSS VL 2: not shown | 58.1 | -0.194 | 36.2 | 94.3 | 12.6 | -2.18 | 91.8 | 104 | 2830 | -0.154 | 17200 | 20000 | 0.00678 | -1.75 | 4.09 | 4.1 | EC50 [6]: 81 nM; killing of LS-174T cells by PBMC at E:T ratio of 5:1 [7]: 20%; cytolysis of KATO-III cells by PBMC: EC50 [8]: 0.132 nM; cytolysis of LS174T cells by PBMC: EC50 [8]: 0.0003 nM; cytolysis of MKN-45 cells by PBMC: EC50 [8]: 0.0003 nM; EC50 [9]: 113 nM
